Data set [1] has as its system Iron regulatory protein 2 (rIRP2). Put plainly: EMSA. As to conditions: aminoallyl-UTP-ATTO-680 incorporated in the labeled probe; competitor unmodified; 100 ng probe heated 3 min at 95 C, 120 ng His-IRP, 15 min room temperature, then 50 ug sodium heparin 10 min; 5% native acrylamide gel, 1x TBE; binding buffer …. On the technique in general: A gel shift assay detects complexes by their altered migration in electrophoresis.

The test system of data set [2] is Iron regulatory protein 1 (rIRP1). The data set can be described thus: EMSA. The settings on record: aminoallyl-UTP-ATTO-680 incorporated in the labeled probe; competitor unmodified; 100 ng probe heated 3 min at 95 C, 120 ng His-IRP, 15 min room temperature, then 50 ug sodium heparin 10 min; 5% native acrylamide gel, 1x TBE; binding buffer ….

Turning to FTL IRE WT, the binding signal (% of WT signal) in data set [1] and in data set [2] was 100 in each case.

Values taken from article PMC3585816.
